Reference: patent US20200262917A1 (Daiichi Sankyo, published 2020)
Residue numbers refer to the chain shown, from its start.

B1: rat anti-human LAG-3 monoclonal antibody rLA225 (antibody, V domains shown)
VH: EVQLVESGGGLVQPGRSMKLSCVASGFTFSNYYMAWVRQAPTKGLEWVASISTGGGNTYYRDSVKGRFTISRDNAKSTLYLQMDSLRSEDTATYYCARPPYGYNYGWFTYWGQGTLVTVSS
VL: DIQMTQSPASLSASLGETVTIECRASEDIHNGLVWYQQKPGKSPQLLIYNANSMHTGVPSRFSGSGSGTQYSLKINSLQSEDVASYFCQQYYNYPRTFGGGTKLELKR
notes: Rat monoclonal antibody purified from hybridoma supernatant; the rat constant regions are not
B2: rat anti-human LAG-3 monoclonal antibody rLA212 (antibody, V domains shown)
VH: EVQLVESGGGLVQPGRSLKLSCAASGFTYRSYVMAWVRQAPTRGLEWVASISTGGGNTYYRDSVKGRFTISRDNAKNTLYLQMDSLRSEDTATYYCAEDMSNSGYGLFDYWGQGVMVTVSS
VL: NIVMTQSPKSMSISVGDRVTMNCKAGQNVDNNIAWYQKKPGQSPKLLIYYASNRNTGVPDRFTGGGYGTDFTLTINSVQAEDAAFYYCQRISNSPYTFGAGTELELKR
notes: as for B1
B3: rat anti-human LAG-3 monoclonal antibody rLA1264 (antibody, V domains shown)
VH: EVQLVESGGGLVQPGRSLKLSCAASGFTFSSYYMAWVRQAPTKGLEWVAYISNGGYSTYYRDSVKGRFTISRENAKSTLYLQMDSLRSEDTATYYCTITDHSGYRFTYWGQGTLVTVSS
VL: DIQMTQSPSLLSASVGDRVTLSCKASQSIYNSLAWYQQKLGEAPKLLIYDANSLQTGIPSRFSGSGSGTDFTLTISSLQPEDVATYFCQKYYSGNTFGAGTKLELKR
notes: Rat monoclonal antibody
B4: rat anti-human LAG-3 monoclonal antibody rLA204 (antibody, V domains shown)
VH: EVELVESGGGLVQPGRSMKLSCAASGFTFRTYGMAWVRQAPTKGLEWVASISTGGGSTYYRDSVKGRFTISRDNAKSTLYLQMDSLRSEDTATYYCTTDLINYPGIGGFAFWGQGTLVTVSS
VL: NIVMTQSPKSMSISVGDRVTMNCKASQNVYNNIAWYQQKPGKSPKLLIYYASNRYTGVPDRFTGSGSGTDFTLTIHSVQAEDAAFYYCQRLYNSPPTFGGGTKLELKR
notes: the rat constant regions are not
B5: rat anti-human LAG-3 monoclonal antibody rLA869 (antibody, V domains shown)
VH: EVQLVESGGGLVQPGRSLKLSCAASGFTYRTYVMAWVRQGPTQGLEWVASISTGGVSTYYRDSVKGRFTISRDNAKNTLYLQMDSLRSEDTATYYCAKDMLNGYNSQGLFDYWGQGVMVTVSS
VL: NIVMTQSPKSMSISVGDRVTMNCRASQNVDNTIAWYQQKPGQSPKLLIYFASDRYTGVPDRFTGGGYGTDFTLTINSVQAEDAAFYYCQRIYNSPLTFGSGTKLEIRR
notes: Rat monoclonal antibody
B6: humanized anti-human LAG-3 antibody hLA212_H3/L2 (antibody, human IgG1, kappa, V domains shown)
VH: B2 VH with R16G, K19R, T42G, R43K, S88A, T93V, V115T, M116L
VL: DIQMTQSPSSLSASVGDRVTITCKAGQNVDNNIAWYQQKPGQSPKLLIYYASNRNTGVPSRFSGSGYGTDFTLTISSLQPEDFATYYCQRISNSPYTFGQGTKVEIKR
notes: Human IgG1/kappa; not in a low fucose form; also called humanized hLA212_H3/L2
B7: human chimeric anti-LAG-3 antibody cLA212 (antibody, human IgG1, V domains shown)
VH: B2 VH
VL: B2 VL
notes: Human IgG1/kappa chimera; The C-terminal ends 470 and 234 are inferred from the humanized chains, which differ from cLA212 by substitutions only; also called rLA212 human chimeric antibody
B8: humanized anti-human LAG-3 antibody hLA212_H2/L5 (antibody, human IgG1, kappa, V domains shown)
VH: B2 VH with R16G, K19R, T42G, R43K, A49G, D84N, S88A, T93V, V115T, M116L
VL: B2 VL with V3Q, K9S, N22T, T63S, N76S, A80P, A100Q, E103K
notes: Human IgG1/kappa; also called humanized hLA212_H2/L5
B9: humanized anti-human LAG-3 antibody hLA212_H3/L5 (antibody, human IgG1, kappa, V domains shown)
VH: B2 VH with R16G, K19R, T42G, R43K, S88A, T93V, V115T, M116L
VL: B2 VL with V3Q, K9S, N22T, T63S, N76S, A80P, A100Q, E103K
notes: Human IgG1/kappa; also called humanized hLA212_H3/L5
B10: humanized anti-human LAG-3 antibody hLA212_H2/L1 (antibody, human IgG1, kappa, V domains shown)
VH: B2 VH with R16G, K19R, T42G, R43K, A49G, D84N, S88A, T93V, V115T, M116L
VL: B6 VL with S43A, Y67S
notes: Human IgG1/kappa; also called humanized hLA212_H2/L1
B11: humanized anti-human LAG-3 antibody hLA212_H3/L3 (antibody, human IgG1, kappa, V domains shown)
VH: B2 VH with R16G, K19R, T42G, R43K, S88A, T93V, V115T, M116L
VL: B6 VL with D1N, Q38K, S60D, S65G, T85F
notes: Human IgG1/kappa; also called humanized hLA212_H3/L3
B12: humanized anti-human LAG-3 antibody hLA212_H2/L4 (antibody, human IgG1, kappa, V domains shown)
VH: B2 VH with R16G, K19R, T42G, R43K, A49G, D84N, S88A, T93V, V115T, M116L
VL: B6 VL with L11M, A13I, I21M, Q38K, Y67S, L78V, V104L, I106L
notes: Human IgG1/kappa; also called humanized hLA212_H2/L4
B13: humanized anti-human LAG-3 antibody hLA212_H3/L1 (antibody, human IgG1, kappa, V domains shown)
VH: B2 VH with R16G, K19R, T42G, R43K, S88A, T93V, V115T, M116L
VL: B6 VL with S43A, Y67S
notes: Human IgG1/kappa; also called humanized hLA212_H3/L1
B14: humanized anti-human LAG-3 antibody hLA212_H2/L3 (antibody, human IgG1, kappa, V domains shown)
VH: B2 VH with R16G, K19R, T42G, R43K, A49G, D84N, S88A, T93V, V115T, M116L
VL: B6 VL with D1N, Q38K, S60D, S65G, T85F
notes: Human IgG1/kappa; also called humanized hLA212_H2/L3
B15: humanized anti-human LAG-3 antibody hLA212_H2/L2 (antibody, human IgG1, kappa, V domains shown)
VH: B2 VH with R16G, K19R, T42G, R43K, A49G, D84N, S88A, T93V, V115T, M116L
VL: B6 VL
notes: Human IgG1/kappa; also called humanized hLA212_H2/L2
B16: humanized anti-human LAG-3 antibody hLA212_H3/L4 (antibody, human IgG1, kappa, V domains shown)
VH: B2 VH with R16G, K19R, T42G, R43K, S88A, T93V, V115T, M116L
VL: B6 VL with L11M, A13I, I21M, Q38K, Y67S, L78V, V104L, I106L
notes: Human IgG1/kappa; also called humanized hLA212_H3/L4

target: T1, human LAG-3 (full length, expressed on cells) (human, UniProt P18627 23-525); experiment: flow cytometry on PHA-activated human T cells (PHA blasts) expressing LAG-3
T1 construct: also called CD223; hLAG-3
T1 sequence: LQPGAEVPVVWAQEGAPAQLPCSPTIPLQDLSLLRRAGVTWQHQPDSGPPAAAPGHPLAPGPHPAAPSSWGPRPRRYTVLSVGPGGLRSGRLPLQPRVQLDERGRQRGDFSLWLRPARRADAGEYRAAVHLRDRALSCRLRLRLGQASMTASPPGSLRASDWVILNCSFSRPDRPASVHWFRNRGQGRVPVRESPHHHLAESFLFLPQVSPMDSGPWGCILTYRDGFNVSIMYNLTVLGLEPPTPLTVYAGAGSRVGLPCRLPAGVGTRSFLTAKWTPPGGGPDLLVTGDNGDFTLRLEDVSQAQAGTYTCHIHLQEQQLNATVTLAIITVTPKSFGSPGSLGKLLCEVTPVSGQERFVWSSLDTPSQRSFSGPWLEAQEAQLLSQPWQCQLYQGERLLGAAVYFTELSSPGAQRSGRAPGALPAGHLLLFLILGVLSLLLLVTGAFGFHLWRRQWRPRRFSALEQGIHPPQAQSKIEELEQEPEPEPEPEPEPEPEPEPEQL

binding result	Binder
binds	B1
binds	B2
binds	B3
binds	B4
binds	B5

target: T2, FLAG-D4: domain 4 and onwards (353-525) of human LAG-3 with N-terminal FLAG tag, on cells (human, UniProt P18627 353-525); experiment: flow cytometry on transfected HEK293T cells
T2 construct: Expressed on HEK293T cells from pcDNA3.1; any leader before the FLAG tag is not described; also called construct containing only domain 4
T2 sequence: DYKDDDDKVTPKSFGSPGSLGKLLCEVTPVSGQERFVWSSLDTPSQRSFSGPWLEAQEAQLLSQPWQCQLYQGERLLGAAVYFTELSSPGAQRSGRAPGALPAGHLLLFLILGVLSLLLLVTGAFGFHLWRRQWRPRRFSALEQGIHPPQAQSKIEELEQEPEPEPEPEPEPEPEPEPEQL
Protocol: (§1) It was further confirmed by flow cytometry that the antibody produced by the hybridomas determined to be positive by the Cell-ELISA in Example 1)-3 binds to PHA (phytohemagglutinin) activated human T cells (PHA blasts), a more physiologically relevant cell type expressing LAG-3. To human PBMCs stimulated with 2 μg/mL of PHA (manufactured by Sigma-Aldrich) for three days, was added a hybridoma culture supernatant for suspension, followed by reaction at 4° C. for 30 minutes. After washing with a FACS buffer (PBS, 0.1% BSA, and 0.1% sodium azide), a secondary antibody such as an Anti-Rat IgG PE conjugate (manufactured by Jackson ImmunoResearch Laboratories, Inc.) diluted 200-fold with a FACS buffer comprising a LIVE/DEAD Fixable Dead Cell Stain Kit-near-IR fluorescent reactive dye (manufactured by Invitrogen Corp.) was added thereto for suspension, followed by standing at 4° C. for 30 minutes. After washing with a FACS buffer, the cells were resuspended in PBS containing 1 to 2% paraformaldehyde, followed by detection using a flow cytometer (Cantoll: manufactured by Becton, Dickinson and Company or FC500: manufactured by Beckman Coulter Inc.). The data was analyzed using FlowJo (manufactured by Tree Star Inc). After removal of the LIVE/DEAD Fixable Dead Cell Stain Kit-near-IR fluorescent reactive dye-positive dead cells by gating, a histogram of the fluorescence intensity of the living cells was plotted.
(§2) Each expression plasmid (cloned into pcDNA3.1) of either domain 3 and onwards (263-525) or domain 4 and onwards (353-525) of human LAG-3 with a FLAG tag sequence ([…]) added to the N terminus was introduced into HEK293T cells using Lipofectamine 2000 (manufactured by Life Technologies Corp.), and the cells were cultured for 1 day and then recovered, to investigate the binding activity of the antibodies by flow cytometry according to the method described in Example 1)-4. […]

binding result	Binder
no binding (tested: 10 µg/mL)	B1
no binding (tested: 10 µg/mL)	B2
no binding (tested: 10 µg/mL)	B4

target: T3, FLAG-D3D4: domain 3 and onwards (263-525) of human LAG-3 with N-terminal FLAG tag, on cells (human, UniProt P18627 263-525); experiment: flow cytometry on transfected HEK293T cells, antibody at 10 µg/mL
T3 construct: Expressed on HEK293T cells from pcDNA3.1; any leader before the FLAG tag is not described; also called construct containing domains 3 and 4
T3 sequence: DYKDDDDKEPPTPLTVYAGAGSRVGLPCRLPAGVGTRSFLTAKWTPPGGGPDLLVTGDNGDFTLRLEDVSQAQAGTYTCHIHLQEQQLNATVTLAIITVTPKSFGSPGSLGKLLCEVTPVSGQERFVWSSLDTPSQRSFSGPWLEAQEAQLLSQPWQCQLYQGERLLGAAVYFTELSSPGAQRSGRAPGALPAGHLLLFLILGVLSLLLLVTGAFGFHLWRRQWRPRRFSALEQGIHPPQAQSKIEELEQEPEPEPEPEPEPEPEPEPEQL
Protocol: as §1, §2

binding result	Binder
binds	B1
binds	B2
binds	B4

target: T1, human LAG-3 (full length, expressed on …); experiment: flow cytometry on 293T-lacZ cells expressing human LAG-3

binding result	Binder
binds	B6
binds	B7
binds	B8
binds	B9
binds	B10
binds	B11
binds	B12
binds	B13
binds	B14
binds	B15
binds	B16

target: T3, FLAG-D3D4: domain 3 and onwards …; experiment: same type of flow cytometry experiment using hybridoma culture supernatant

binding result	Binder
binds	B3
binds	B5

Target: T4, LAG-3_D3D4-His: 3rd and 4th extracellular immunoglobulin-like domains (263-450) of human LAG-3 with … (UniProt P18627 263-450)
T4 chain: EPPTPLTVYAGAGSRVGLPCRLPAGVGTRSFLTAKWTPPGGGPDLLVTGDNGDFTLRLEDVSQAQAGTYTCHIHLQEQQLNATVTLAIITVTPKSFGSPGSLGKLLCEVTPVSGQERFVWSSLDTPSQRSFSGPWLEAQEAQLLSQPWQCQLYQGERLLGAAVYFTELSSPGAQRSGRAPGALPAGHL
Experiment: SPR (Biacore T200)

Kd	Binder
0.062 nM	B6
0.12 nM	B8
0.1 nM	B9
0.11 nM	B10
0.1 nM	B11
0.096 nM	B12
0.092 nM	B13
0.15 nM	B14
0.12 nM	B15
0.076 nM	B16
